# Assay results published in patent publication US20240132615A1 (ICHNOS SCIENCES, published 2024).
# Substitutions are numbered along the chain they refer to.
# T1: human BCMA on cells (NCI-H929, NCI-H929 CD38 KO, MOLP-8) (human, UniProt Q02223 1-184)
# T1 construct: whole, on cells; endogenous BCMA of myeloma cell lines
# T1 sequence (looked up): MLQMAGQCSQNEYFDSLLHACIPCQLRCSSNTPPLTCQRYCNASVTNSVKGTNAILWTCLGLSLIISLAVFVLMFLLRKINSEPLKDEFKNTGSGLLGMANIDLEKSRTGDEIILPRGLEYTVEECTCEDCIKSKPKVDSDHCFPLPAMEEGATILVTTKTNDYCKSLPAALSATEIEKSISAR
# T2: recombinant human BCMA Fc fusion protein (Acrobiosystems BC7-H5254 / BCA-H5254) (human, UniProt Q02223 1-54)
# T2 construct: also called recombinant BCMA-Fc protein; not shown: Fc of the bought fusion protein, not described
# T2 sequence (looked up): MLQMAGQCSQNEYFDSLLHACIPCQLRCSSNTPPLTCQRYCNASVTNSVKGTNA
# B1: Anti-BCMA-D3-MP04-B11a FAB (Fab, V domains shown)
# VH: EVQLVESGGGLIQPGGSLRLSCAASGFIFSHYEMNWVRQAPGKGLEWVSAIGQVDGEVYADSVKGRFTISRDNSKNTLYLQMNSLRAEDTAVYYCARVPYSYSGYSGADIWGQGTLVTVSS
# VL: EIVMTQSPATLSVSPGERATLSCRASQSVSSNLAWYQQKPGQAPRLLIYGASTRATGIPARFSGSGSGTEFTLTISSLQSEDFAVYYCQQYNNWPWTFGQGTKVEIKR
# notes: Fab
# B2: Anti-BCMA-D3-MP04-F3 FAB (Fab, V domains shown)
# VH: B1 VH with D55G, G56N, E57T
# VL: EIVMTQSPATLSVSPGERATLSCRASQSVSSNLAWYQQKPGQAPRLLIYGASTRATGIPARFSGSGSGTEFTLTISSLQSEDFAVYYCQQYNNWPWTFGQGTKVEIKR
# notes: Fab
# B3: Anti-BCMA-D3-MP04-B11c FAB (Fab, V domains shown)
# VH: B1 VH with D55E
# VL: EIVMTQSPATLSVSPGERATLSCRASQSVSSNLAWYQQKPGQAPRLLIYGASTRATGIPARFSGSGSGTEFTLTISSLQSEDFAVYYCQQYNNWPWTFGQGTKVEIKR
# notes: Fab
# B4: Anti-BCMA-D3-MP05-F4 FAB (Fab, V domains shown)
# VH: B1 VH with V54G, D55G, G56N, E57T, S103L, S106Q
# VL: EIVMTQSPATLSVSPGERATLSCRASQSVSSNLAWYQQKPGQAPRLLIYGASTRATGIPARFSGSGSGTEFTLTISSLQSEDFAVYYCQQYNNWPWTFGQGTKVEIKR
# notes: Fab
# B5: Anti-BCMA-D3-MP04-G7 FAB (Fab, V domains shown)
# VH: B1 VH with V54R, E57T
# VL: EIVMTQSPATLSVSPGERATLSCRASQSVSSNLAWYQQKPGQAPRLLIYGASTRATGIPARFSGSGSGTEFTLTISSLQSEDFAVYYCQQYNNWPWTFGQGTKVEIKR
# notes: Fab
# B6: Anti-BCMA-D3-MP04-B11b FAB (Fab, V domains shown)
# VH: B1 VH with G56A
# VL: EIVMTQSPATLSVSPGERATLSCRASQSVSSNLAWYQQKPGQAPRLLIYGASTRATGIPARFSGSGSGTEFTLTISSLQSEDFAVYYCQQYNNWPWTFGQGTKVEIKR
# notes: Fab
# B7: Anti-BCMA-D3-MP04-A2 FAB (Fab, V domains shown)
# VH: EVQLVESGGGLIQPGGSLRLSCAASGFIFSHYEMNWVRQAPGKGLEWVSAIGQQGGNTVYADSVKGRFTISRDNSKNTLYLQMNSLRAEDTAVYYCARVPYSYSGYSGADIWGQGTLVTVSS
# VL: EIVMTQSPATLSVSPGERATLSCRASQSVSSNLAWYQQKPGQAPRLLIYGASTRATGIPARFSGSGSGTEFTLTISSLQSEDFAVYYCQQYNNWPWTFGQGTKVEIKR
# notes: Fab
# B8: Anti-BCMA-D3-MP04-C2 FAB (Fab, V domains shown)
# VH: B7 VH with Q54F
# VL: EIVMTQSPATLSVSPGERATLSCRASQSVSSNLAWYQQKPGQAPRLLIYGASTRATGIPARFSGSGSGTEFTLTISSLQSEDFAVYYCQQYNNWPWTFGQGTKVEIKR
# notes: Fab
# B9: Anti-BCMA-D3-MP04-D4 FAB (Fab, V domains shown)
# VH: B7 VH with Q54V
# VL: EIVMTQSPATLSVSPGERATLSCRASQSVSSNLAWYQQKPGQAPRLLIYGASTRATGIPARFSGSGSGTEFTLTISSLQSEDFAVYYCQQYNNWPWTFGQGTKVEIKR
# notes: Fab
# B10: Anti-BCMA-D3-MP04-C8a FAB (Fab, V domains shown)
# VH: B7 VH with Q54M, G56F, N57G, V59L, S63N
# VL: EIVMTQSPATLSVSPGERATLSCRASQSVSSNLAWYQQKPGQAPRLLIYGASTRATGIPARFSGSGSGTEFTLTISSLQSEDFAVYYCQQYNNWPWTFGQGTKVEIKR
# notes: Fab
# B11: Anti-BCMA-D3-MP04-E11 FAB (Fab, V domains shown)
# VH: B7 VH with Q54L
# VL: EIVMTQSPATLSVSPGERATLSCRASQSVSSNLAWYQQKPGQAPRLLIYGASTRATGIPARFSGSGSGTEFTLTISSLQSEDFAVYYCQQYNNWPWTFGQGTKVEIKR
# notes: Fab; also called anti-BCMA-D3-E11; D3-E11
# B12: Anti-BCMA-D3-MP04-C8b FAB (Fab, V domains shown)
# VH: B7 VH with Q54I, G56F, N57G, V59L, S63N
# VL: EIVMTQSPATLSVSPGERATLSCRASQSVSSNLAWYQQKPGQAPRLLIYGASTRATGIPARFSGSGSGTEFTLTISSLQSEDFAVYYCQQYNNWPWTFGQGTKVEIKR
# notes: Fab
# B13: Anti-BCMA-D3-MP03-G7 FAB (Fab, V domains shown)
# VH: B7 VH with A50I, Q54R, G56H, N57T, V59E
# VL: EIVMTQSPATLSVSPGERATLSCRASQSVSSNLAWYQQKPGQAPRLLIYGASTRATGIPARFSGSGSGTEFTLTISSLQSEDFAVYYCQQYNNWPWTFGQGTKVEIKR
# notes: Fab
# B14: Anti-CD3-C1-UCP01-B9 IgG1LALA (antibody, V domains shown)
# VH: QVQLVQSGAEVKKPGSSVKVSCKASGGKFSRYAISWVRQAPGQGLEWMGGINAPVVRSPEYAQKFQGRVTITADESTSTAYMELSSLRSEDTAVYYCARYGYSLYMDIWGQGTLVTVSS
# VL: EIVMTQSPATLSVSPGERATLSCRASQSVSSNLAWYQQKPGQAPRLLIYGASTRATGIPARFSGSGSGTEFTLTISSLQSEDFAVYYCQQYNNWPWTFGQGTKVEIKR
# notes: IgG1 LALA
# B15: Anti-CD3-C1-UCP01-E6 IgG1LALA (antibody, V domains shown)
# VH: B14 VH with N52T, A53P, V55H, R57G, S58I, P59A, E60D
# VL: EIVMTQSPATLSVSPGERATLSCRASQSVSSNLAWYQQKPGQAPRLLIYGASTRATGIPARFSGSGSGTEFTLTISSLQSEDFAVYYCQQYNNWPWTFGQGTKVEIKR
# notes: IgG1 LALA
# B16: Anti-CD3-C1-UCP01-H9 IgG1LALA (antibody, V domains shown)
# VH: QVQLVQSGAEVKKPGSSVKVSCKASGGKFSRYAISWVRQAPGQGLEWMGGISPHVGYAEYAQKFQGRVTITADESTSTAYMELSSLRSEDTAVYYCARYGYSLYMDIWGQGTLVTVSS
# VL: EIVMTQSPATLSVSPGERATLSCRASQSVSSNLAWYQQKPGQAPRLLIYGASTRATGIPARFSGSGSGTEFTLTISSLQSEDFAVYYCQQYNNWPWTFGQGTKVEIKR
# notes: IgG1 LALA
# B17: Anti-CD3-C1-UCP01-E7 IgG1LALA (antibody, V domains shown)
# VH: B16 VH with S52N, V55L, Y57E
# VL: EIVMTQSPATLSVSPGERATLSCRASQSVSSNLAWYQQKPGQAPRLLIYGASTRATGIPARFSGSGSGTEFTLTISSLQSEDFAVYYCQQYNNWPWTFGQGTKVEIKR
# notes: IgG1 LALA
# B18: Anti-CD3-C1-UCP01-B6 IgG1LALA (antibody, V domains shown)
# VH: B16 VH with H54Y, V55Q, E59S
# VL: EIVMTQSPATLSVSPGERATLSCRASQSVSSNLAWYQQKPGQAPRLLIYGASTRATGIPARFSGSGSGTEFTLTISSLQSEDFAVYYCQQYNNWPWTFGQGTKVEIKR
# notes: IgG1 LALA
# B19: Anti-CD3-C1-UCP01-D6 IgG1LALA (antibody, V domains shown)
# VH: B16 VH with S52T, P53A, H54L, V55G, A58P, E59N
# VL: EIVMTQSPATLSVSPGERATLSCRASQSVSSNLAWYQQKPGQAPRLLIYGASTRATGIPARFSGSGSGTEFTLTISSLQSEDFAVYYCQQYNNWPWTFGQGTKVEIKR
# notes: IgG1 LALA; also called anti-CD3-C1-D6; C1-D6
# B20: Anti-CD3-C1-UCP01-H10 IgG1LALA (antibody, V domains shown)
# VH: B16 VH with H54L, A58P, E59Q
# VL: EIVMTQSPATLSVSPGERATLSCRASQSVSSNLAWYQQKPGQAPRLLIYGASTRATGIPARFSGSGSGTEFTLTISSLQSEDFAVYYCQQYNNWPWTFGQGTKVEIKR
# notes: IgG1 LALA; also called anti-CD3-C1-H10
# B21: Anti-CD3-C1-UCP01-E11 IgG1LALA (antibody, V domains shown)
# VH: B16 VH with S52N, H54F, V55K, Y57D
# VL: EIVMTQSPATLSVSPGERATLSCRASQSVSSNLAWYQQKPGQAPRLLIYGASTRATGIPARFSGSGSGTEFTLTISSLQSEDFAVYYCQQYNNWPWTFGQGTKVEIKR
# notes: IgG1 LALA
# B22: Anti-CD3-C1-UCP01-D1 IgG1LALA (antibody, V domains shown)
# VH: B16 VH with S52N, H54L, V55S, G56D, Y57E, E59Q
# VL: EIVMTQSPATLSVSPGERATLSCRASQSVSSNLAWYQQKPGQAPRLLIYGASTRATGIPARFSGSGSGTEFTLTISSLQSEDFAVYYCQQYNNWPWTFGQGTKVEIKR
# notes: IgG1 LALA
# B23: Anti-CD3-C1-UCP01-F1 IgG1LALA (antibody, V domains shown)
# VH: B16 VH with S52N, H54R, V55L, Y57Q
# VL: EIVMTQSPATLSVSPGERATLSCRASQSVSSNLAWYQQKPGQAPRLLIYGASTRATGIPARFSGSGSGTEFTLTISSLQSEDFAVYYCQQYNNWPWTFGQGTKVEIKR
# notes: IgG1 LALA
# B24: Anti-CD3-C1-UCP02-E1 IgG1LALA (antibody, V domains shown)
# VH: B16 VH with H54F, V55K
# VL: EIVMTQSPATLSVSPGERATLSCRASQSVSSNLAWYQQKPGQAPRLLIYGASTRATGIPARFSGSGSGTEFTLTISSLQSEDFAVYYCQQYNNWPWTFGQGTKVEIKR
# notes: IgG1 LALA
# B25: Anti-CD3-C1-UCP01-E10 IgG1LALA (antibody, V domains shown)
# VH: B16 VH with H54F, V55E, Y57T, A58P, E59A
# VL: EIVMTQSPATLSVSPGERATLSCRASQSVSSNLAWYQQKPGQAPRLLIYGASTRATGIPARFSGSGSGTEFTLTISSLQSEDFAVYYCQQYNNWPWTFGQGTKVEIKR
# notes: IgG1 LALA; also called anti-CD3-C1-E10
# B26: Anti-CD3-C1-UCP01-F12 IgG1LALA (antibody, V domains shown)
# VH: B16 VH with H54F, V55R, Y57H
# VL: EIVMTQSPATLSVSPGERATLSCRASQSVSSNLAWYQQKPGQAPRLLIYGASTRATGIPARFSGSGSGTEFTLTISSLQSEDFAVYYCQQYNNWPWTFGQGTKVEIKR
# notes: IgG1 LALA
# B27: Anti-CD3-C1-UCP01-E12 IgG1LALA (antibody, V domains shown)
# VH: B16 VH with S52N, H54L, Y57H
# VL: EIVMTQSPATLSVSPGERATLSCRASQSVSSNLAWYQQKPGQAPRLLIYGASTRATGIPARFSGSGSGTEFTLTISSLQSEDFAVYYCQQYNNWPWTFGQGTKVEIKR
# notes: IgG1 LALA; also called anti-CD3-C1-E12
# B28: Anti-CD3-C1-UCP01-D4 IgG1LALA (antibody, V domains shown)
# VH: B16 VH with S52N, H54I, V55R, Y57R, A58P, E59S
# VL: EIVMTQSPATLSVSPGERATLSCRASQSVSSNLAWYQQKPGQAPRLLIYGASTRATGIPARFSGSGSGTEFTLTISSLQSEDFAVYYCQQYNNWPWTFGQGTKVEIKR
# notes: IgG1 LALA
# B29: Anti-CD3-C1-UCP01-G12 IgG1LALA (antibody, V domains shown)
# VH: B16 VH with E10K, V55I, Y57H, A58P
# VL: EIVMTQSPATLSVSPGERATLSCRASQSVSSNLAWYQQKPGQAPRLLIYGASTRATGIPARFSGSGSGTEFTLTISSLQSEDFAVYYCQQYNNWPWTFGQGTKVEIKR
# notes: IgG1 LALA
# B30: Anti-CD3-C1-UCP01-F10 IgG1LALA (antibody, V domains shown)
# VH: B16 VH with S52N, V55I, G56R, Y57F, A58P
# VL: not shown
# notes: IgG1 LALA; also called anti-CD3-C1-F10
# B31: Anti-CD3-C1-UCP01-C11 IgG1LALA (antibody, V domains shown)
# VH: B16 VH with S52N, Y57A, A58P
# VL: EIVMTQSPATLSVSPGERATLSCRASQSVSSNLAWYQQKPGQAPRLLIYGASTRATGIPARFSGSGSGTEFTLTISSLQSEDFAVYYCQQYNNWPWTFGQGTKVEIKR
# notes: IgG1 LALA
# B32: Anti-BCMA-D3-MP05-A9 FAB (Fab, V domains shown)
# VH: B1 VH with V54G, D55G, G56N, E57T, S103A
# VL: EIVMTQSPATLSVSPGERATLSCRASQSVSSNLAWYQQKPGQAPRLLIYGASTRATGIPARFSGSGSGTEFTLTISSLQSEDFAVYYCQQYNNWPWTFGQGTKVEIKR
# notes: Fab
# B33: Anti-BCMA-D3-MP05-C1a FAB (Fab, V domains shown)
# VH: B1 VH with V54G, D55G, G56N, E57T, S103M, S106A
# VL: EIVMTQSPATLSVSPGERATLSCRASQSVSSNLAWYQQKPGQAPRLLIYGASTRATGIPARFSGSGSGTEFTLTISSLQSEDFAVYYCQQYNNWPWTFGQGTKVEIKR
# notes: Fab
# B34: Anti-BCMA-D3-MP04-B11d FAB (Fab, V domains shown)
# VH: B1 VH with D55A, G56A
# VL: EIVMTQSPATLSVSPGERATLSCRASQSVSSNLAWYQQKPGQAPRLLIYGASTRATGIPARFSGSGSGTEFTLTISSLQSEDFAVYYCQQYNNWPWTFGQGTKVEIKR
# notes: Fab
# B35: Anti-BCMA-D3-MP05-C1b FAB (Fab, V domains shown)
# VH: B1 VH with V54G, D55G, G56N, E57T, S103I, S106A
# VL: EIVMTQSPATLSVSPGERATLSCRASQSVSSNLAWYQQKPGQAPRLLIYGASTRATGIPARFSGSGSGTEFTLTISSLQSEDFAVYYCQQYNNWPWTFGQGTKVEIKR
# notes: Fab
# B36: Anti-CD38-E2-UCP01-A10 FAB (Fab, V domains shown)
# VH: QVQLVQSGAEVKKPGSSVKVSCKASGLPDATYAIGWVRQAPGQGLEWMGRIIPVFGSAHYAQKFQGRVTITADESTSTAYMELSSLRSEDTAVYYCARGLGYYLYSSYYFDIWGQGTLVTVSS
# VL: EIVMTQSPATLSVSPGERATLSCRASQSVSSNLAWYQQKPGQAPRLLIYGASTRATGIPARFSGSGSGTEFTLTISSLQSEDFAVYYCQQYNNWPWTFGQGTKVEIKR
# notes: Fab
# B37: Anti-CD38-E2-UCP02-A5 FAB (Fab, V domains shown)
# VH: B36 VH with L27G, P28S, D29F, A30S, T31N, V54D, F55L, S57A
# VL: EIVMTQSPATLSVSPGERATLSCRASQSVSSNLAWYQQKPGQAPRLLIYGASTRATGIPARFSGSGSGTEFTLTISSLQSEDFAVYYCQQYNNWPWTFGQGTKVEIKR
# notes: Fab; also called anti-CD38-E2-A5; E2-A5
# B38: Anti-CD38-UCP03-H3 Fab (Fab, V domains shown)
# VH: QVQLVQSGAEVKKPGSSVKVSCKASGGVFSQFPISWVRQAPGQGLEWMGGIIAGYGATEYAQKFQGRVTITADESTSTAYMELSSLRSEDTAVYYCARVYGGIDWGQGTLVTVSS
# VL: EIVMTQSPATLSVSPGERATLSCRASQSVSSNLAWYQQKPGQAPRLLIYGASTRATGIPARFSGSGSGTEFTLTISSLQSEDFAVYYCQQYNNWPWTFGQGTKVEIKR
# notes: Fab
# Target: T1, human BCMA on cells (NCI-H929, NCI-H929 …)
# Test: flow cytometry, NCI-H929 cells
row,Binder,Maximum binding (RFI)
1,B1,23700
2,B2,19500
3,B3,22900
4,B4,29900
5,B5,27000
6,B6,23300
7,B7,21500
8,B8,24600
9,B9,25300
10,B10,26500
11,B11,31800
12,B12,28300
13,B13,21500

# Target: T3, human CD3 on cells (HPB-ALL cells, primary human T cells) (human, UniProt P07766 23-207)
# T3 construct: whole, on cells; only the epsilon chain is written
# Test: flow cytometry, human CD4+ T cells
# T3 sequence (P07766 23-207): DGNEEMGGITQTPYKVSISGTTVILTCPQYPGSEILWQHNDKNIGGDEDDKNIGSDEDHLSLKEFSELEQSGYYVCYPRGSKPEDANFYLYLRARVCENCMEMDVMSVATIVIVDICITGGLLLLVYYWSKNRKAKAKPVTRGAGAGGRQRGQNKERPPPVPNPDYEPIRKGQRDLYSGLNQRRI
row,Binder,MFI at 800 nM [MFI]
1,B14,108000
2,B15,231000
3,B16,133000
4,B17,82800
5,B18,109000
6,B19,178000
7,B20,151000
8,B21,91800
9,B22,52800
10,B23,81300
11,B24,151000
12,B25,100000
13,B26,108000
14,B27,149000
15,B28,126000
16,B29,121000
17,B30,150000
18,B31,119000

# Target: T2, recombinant human BCMA Fc fusion …
# Test: SPR, Fab as analyte, captured human BCMA-Fc
row,Binder,Kd [nM]
1,B1,0.14
2,B2,0.64
3,B32,2.3
4,B3,0.16
5,B33,1.03
6,B34,5.43
7,B4,0.78
8,B35,2.22
9,B5,0.08
10,B6,0.52
11,B7,0.03
12,B8,0.03
13,B9,0.02
14,B10,0.09
15,B11,0.01
16,B12,0.03
17,B13,0.41

# Target: T1, human BCMA on cells (NCI-H929, NCI-H929 …)
# Test: flow cytometry, NCI-H929 cells, one-site fit
row,Binder,Kd [nM]
1,B1,6.03
2,B2,7.12
3,B3,3.9
4,B4,11.8
5,B5,5.82
6,B6,14.1
7,B7,7.68
8,B8,6.49
9,B9,8.84
10,B10,3.65
11,B11,13.4
12,B12,7.39
13,B13,29.5

# Target: T4, Biotinylated Human CD38 Protein, Avitag, His Tag (Acrobiosystems CD8-H82E7) (human, UniProt P28907 43-300, biotinylated)
# T4 construct: bought protein; also called biotinylated recombinant human CD38 protein; human CD38-avi-his
# Test: SPR, Fab as analyte, biotin-captured human CD38
row,Binder,Kd [nM]
1,B36,9.4
2,B37,23.6

# Target: T5, recombinant cynomolgus monkey BCMA Fc fusion protein (Acrobiosystems BCA-C5253) (cynomolgus monkey, UniProt A0A2K5UD97 1-53)
# T5 construct: bought protein; not shown: Fc of the bought fusion protein, not described
# Test: SPR, Fab as analyte, captured cynomolgus BCMA-Fc
# T5 sequence (A0A2K5UD97 entry or part of it): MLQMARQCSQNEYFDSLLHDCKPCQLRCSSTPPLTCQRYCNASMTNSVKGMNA
row,Binder,Kd [nM]
1,B1,0.24
2,B2,3.03
3,B32,6.54
4,B3,0.34
5,B33,1.03
6,B34,4.85
7,B4,2.83
8,B35,5.86
9,B5,0.14
10,B6,0.79
11,B7,0.01
12,B8,0.02
13,B9,0.01
14,B10,0.17
15,B11,0.01
16,B12,0.11
17,B13,0.31

# Target: T6, recombinant cynomolgus monkey CD38-ECD-C-his protein (cynomolgus monkey, UniProt Q5VAN0 45-301)
# T6 construct: made in house; Q5VAN0 residues 43-301 (residue 44 deleted) with C-terminal 6-His; also called cynomolgus monkey CD38-C-His; recombinant cynomolgus monkey CD38 protein
# Test: SPR, Fab as analyte, captured cynomolgus CD38-his
row,Binder,Kd [nM]
1,B38,178

# Target: T6, recombinant cynomolgus monkey …
# Test: SPR, Fab as analyte, captured cynomolgus CD38-his
# Remark: another data set of the same source
row,Binder,Kd [nM]
1,B36,8.6
2,B37,4.4

# Target: T4, Biotinylated Human CD38 Protein, …
# Test: SPR, Fab as analyte, immobilised biotinylated human CD38;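 further: biacore T200 at 25 °C, single-cycle kinetics with Fab from 7.8 to 2000 nM, 3 min association then 5 min dissociation, fitted with a 1:1 Langmuir model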
row,Binder,Kd [nM]
1,B38,810
